Measurements published in US20240117334A1, “FACTOR B PROTEASES” (Vertex Pharmaceuticals Incorporated, priority 2021, published 2024).
Changes are numbered by the printed parent chain. Names and notes keep the numbering of the source.

B1: chymase C22S/P38Q/K40M/F41T/V138I/D175R/A190S/V213A/S218I/A226R (enzyme)
chain: IIGGTESKPHSRPYMAYLEIVTSNGQSMTCGGFLIRRNFVLTAAHCAGRSITVTLGAHNITEEEDTWQKLEVIKQFRHPKYNTSTLHHDIMLLKLKEKASLTLAVGTLPFPSQFNFVPPGRMCRIAGWGRTGVLKPGSDTLQEVKLRLMDPQACSHFRRFDHNLQLCVGNPRKTKSSFKGDSGGPLLCAGVAQGIASYGRIDAKPPRVFTRISHYRPWINQILQAN
B2: chymase C22S/P38Q/K40M/F41R/L99Y/V138I/F173L/D175S/A190S/V213A/S218T/A226R (enzyme)
chain: B1 chain with T29R, L86Y, F157L, R159S, I201T
B3: chymase C22S/P38Q/K40M/F41K/L99W/V138I/F173M/A190S/V213A/S218N/A226R (enzyme)
chain: B1 chain with T29K, L86W, F157M, R159D, I201N
B4: chymase C22S/P38Q/K40M/F41R/L99N/V138I/F173Y/D175F/A190S/V213A/S218V/A226R (enzyme)
chain: B1 chain with T29R, L86N, F157Y, R159F, I201V
B5: chymase C22S/P38Q/K40M/F41R/V138I/F173S/D175Y/A190S/V213A/S218V/A226R (enzyme)
chain: B1 chain with T29R, F157S, R159Y, I201V
B6: chymase C22S/P38Q/K40V/F41R/V138I/F173S/D175N/A190S/V213A/S218I/A226R (enzyme)
chain: B1 chain with M28V, T29R, F157S, R159N
B7: chymase C22S/P38Q/K40A/F41R/V138I/F173L/D175R/A190S/V213A/S218L/A226R (enzyme)
chain: B1 chain with M28A, T29R, F157L, I201L
B8: chymase C22S/P38Q/K40V/F41R/V138I/F173L/D175N/A190S/V213A/S218V/A226R (enzyme)
chain: B1 chain with M28V, T29R, F157L, R159N, I201V
B9: chymase C22S/P38Q/K40V/F41R/L99H/V138I/F173M/D175N/A190S/V213A/S218T/A226R (enzyme)
chain: B1 chain with M28V, T29R, L86H, F157M, R159N, I201T
B10: chymase C22S/P38Q/K40A/F41R/L99H/V138I/F173Y/D175N/A190S/V213A/S218I/A226R (enzyme)
chain: B1 chain with M28A, T29R, L86H, F157Y, R159N
B11: chymase C22S/P38Q/K40M/F41R/L99Y/V138I/F173L/D175Q/A190S/V213A/S218T/A226R (enzyme)
chain: B1 chain with T29R, L86Y, F157L, R159Q, I201T
B12: chymase C22S/P38Q/K40L/F41R/V138I/F173L/D175R/A190S/V213A/S218V/A226R (enzyme)
chain: B1 chain with M28L, T29R, F157L, I201V
B13: chymase C22S/P38Q/K40L/F41R/L99Y/V138I/F173Y/D175N/A190S/V213A/S218V/A226R (enzyme)
chain: B1 chain with M28L, T29R, L86Y, F157Y, R159N, I201V
B14: chymase C22S/P38Q/K40Q/F41R/L99H/V138I/F173Y/D175S/A190S/V213A/S218V/A226R (enzyme)
chain: B1 chain with M28Q, T29R, L86H, F157Y, R159S, I201V
B15: chymase C22S/P38Q/K40M/F41R/V138I/F173L/D175K/A190S/V213A/S218V/A226R (enzyme)
chain: B1 chain with T29R, F157L, R159K, I201V
B16: chymase C22S/P38Q/K40L/F41R/V138I/F173Y/D175H/A190S/V213A/S218T/A226R (enzyme)
chain: B1 chain with M28L, T29R, F157Y, R159H, I201T
B17: chymase C22S/P38Q/K40M/F41H/V138I/D175S/A190S/V213A/A226R (enzyme)
chain: B1 chain with T29H, R159S, I201S
B18: chymase C22S/P38Q/K40L/F41R/L99F/V138I/F173L/D175N/A190S/V213A/A226R (enzyme)
chain: B1 chain with M28L, T29R, L86F, F157L, R159N, I201S
B19: chymase C22S/P38Q/K40M/F41R/L99H/V138I/D175Q/A190S/V213A/S218V/A226R (enzyme)
chain: B1 chain with T29R, L86H, R159Q, I201V
B20: chymase C22S/P38Q/K40L/F41R/L99M/V138I/F173L/D175R/A190S/V213A/S218V/A226R (enzyme)
chain: B1 chain with M28L, T29R, L86M, F157L, I201V
B21: chymase C22S/P38Q/K40M/F41R/L99W/V138I/F173M/D175H/A190S/V213A/S218T/A226R (enzyme)
chain: B1 chain with T29R, L86W, F157M, R159H, I201T
B22: chymase C22S/P38Q/K40M/F41R/L99N/V138I/F173Y/D175W/A190S/V213A/S218T/A226R (enzyme)
chain: B1 chain with T29R, L86N, F157Y, R159W, I201T
B23: chymase C22S/P38Q/K40A/F41Q/V138I/F173S/D175W/A190S/V213A/S218V/A226R (enzyme)
chain: B1 chain with M28A, T29Q, F157S, R159W, I201V
B24: chymase C22S/P38Q/K40A/F41R/L99H/V138I/F173M/D175T/A190S/V213A/S218I/A226R (enzyme)
chain: B1 chain with M28A, T29R, L86H, F157M, R159T
B25: chymase C22S/P38Q/K40M/F41R/V138I/F173L/D175R/A190S/V213A/S218T/A226R (enzyme)
chain: B1 chain with T29R, F157L, I201T
B26: chymase C22S/P38Q/K40Q/F41R/V138I/F173Y/D175N/A190S/V213A/S218V/A226R (enzyme)
chain: B1 chain with M28Q, T29R, F157Y, R159N, I201V
B27: chymase C22S/P38Q/K40M/F41H/L99H/V138I/D175S/A190S/V213A/S218V/A226R (enzyme)
chain: B1 chain with T29H, L86H, R159S, I201V
B28: chymase C22S/P38Q/K40M/F41R/L99Y/V138I/F173S/D175S/A190S/V213A/S218T/A226R (enzyme)
chain: B1 chain with T29R, L86Y, F157S, R159S, I201T

Molecular target: Human Factor B (human) (UniProt P00751)
Test: cell-based or functional assay

Sequence of Human Factor B (human) (P00751 26-764 limits assumed): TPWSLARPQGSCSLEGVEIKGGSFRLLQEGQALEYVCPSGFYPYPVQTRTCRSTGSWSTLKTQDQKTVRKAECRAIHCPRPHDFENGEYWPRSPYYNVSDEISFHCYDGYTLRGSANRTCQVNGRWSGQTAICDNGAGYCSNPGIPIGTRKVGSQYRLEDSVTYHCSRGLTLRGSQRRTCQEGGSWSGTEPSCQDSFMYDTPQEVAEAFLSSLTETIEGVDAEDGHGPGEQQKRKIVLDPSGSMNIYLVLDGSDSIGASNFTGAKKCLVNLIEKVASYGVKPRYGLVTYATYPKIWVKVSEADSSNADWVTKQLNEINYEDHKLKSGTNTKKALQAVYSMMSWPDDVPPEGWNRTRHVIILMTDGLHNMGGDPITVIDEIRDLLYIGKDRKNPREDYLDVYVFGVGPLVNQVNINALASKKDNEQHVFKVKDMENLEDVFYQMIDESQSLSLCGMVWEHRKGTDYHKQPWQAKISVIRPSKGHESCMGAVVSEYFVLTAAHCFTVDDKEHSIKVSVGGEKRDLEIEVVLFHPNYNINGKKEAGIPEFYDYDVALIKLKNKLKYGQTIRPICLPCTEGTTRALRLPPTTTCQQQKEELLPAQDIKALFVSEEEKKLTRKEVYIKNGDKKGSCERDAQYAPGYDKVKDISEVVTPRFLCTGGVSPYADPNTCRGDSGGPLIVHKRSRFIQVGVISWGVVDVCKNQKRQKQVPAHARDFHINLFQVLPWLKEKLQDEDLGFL

Row | fB Cleavage EC50 [nM] | Binder
1 | 218 | B1
2 | 1230 | B2
3 | 956 | B3
4 | 193 | B4
5 | 287 | B5
6 | 717 | B6
7 | 283 | B7
8 | 279 | B8
9 | 639 | B9
10 | 92.9 | B10
11 | 1650 | B11
12 | 113 | B12
13 | 57 | B13
14 | 150 | B14
15 | 350 | B15
16 | 121 | B16
17 | 1060 | B17
18 | 631 | B18
19 | 301 | B19
20 | 213 | B20
21 | 414 | B21
22 | 500 | B22
23 | 2190 | B23
24 | 882 | B24
25 | 51 | B25
26 | 100 | B26
27 | 277 | B27
28 | 10600 | B28
